{"source": "paper PMC6179999", "key": {"[1]": {"test_system": "P27467", "experiment": "AUC; AUC-FDS of GFP-Wnt3a in culture medium with mock-treated serum; peak areas normalised by the whole area"}, "[2]": {"test_system": "P27467", "experiment": "AUC; AUC-FDS; conditioned medium of L cells secreting GFP-Wnt3a co-cultured with HEK293 cells secreting mouse sFRP2"}, "[3]": {"test_system": "P27467", "experiment": "AUC; AUC-FDS of GFP-Wnt3a in culture medium with serum from which afamin was immuno-depleted before the cultivation; peak areas normalised by the whole area"}}, "data": [{"substance": "GFP-tagged mouse Wnt3a secreted from stably transformed mouse L cells", "values": [{"measurement": "relative area of the HMW peaks, mock-treated serum", "setting": "[1]", "value": "that of the HMW peaks was increased from 51.1 ± 4.8% to 69.6 ± 1.2%"}, {"measurement": "relative area of HMW complex peaks, with sFRP2", "setting": "[2]", "value": "relative area of HMG peaks was decreased from 46.4 ± 0.8% to 33.6 ± 2.9% by the addition of sFRP2"}, {"measurement": "relative area of the HMW peaks, afamin pre-depleted serum", "setting": "[3]", "value": "that of the HMW peaks was increased from 51.1 ± 4.8% to 69.6 ± 1.2%"}]}]}
